Source: paper PMC11257983 (2024)

B1: Flag-CNK^2–549 [Drosophila] / Myc-MEK [Drosophila] (parent)
chain 1: MSKNKLNLVLPPVNTEATVAAATVAPTPPFKTPSGTDTHSLLGKPKTSIDALTETLEGLDMGDTERKRIKMFLSQKEKIGELSDEDLEKLGELGSGNGGVVMKVRHTHTHLIMARKLIHLEVKPAIKKQILRELKVLHECNFPHIVGFYGAFYSDGEISICMEYMDGGSLDLILKRAGRIPESILGRITLAVLKGLSYLRDNHAIIHRDVKPSNILVNSSGEIKICDFGVSGQLIDSMANSFVGTRSYMSPERLQGTHYSVQSDIWSLGLSLVEMAIGMYPIPPPNTATLESIFADNAEESGQPTDEPRAMAIFELLDYIVNEPPPKLEHKIFSTEFKDFVDICLKKQPDERADLKTLLSHPWIRKAELEEVDISGWVCKTMDLPPSTPKRNTSPN
chain 2: AYINIAEWTPDQVTDWIKGLDESMKGYLYEFSKQEIGGRALLNIRPYELENLGMLRIGHQEIVLEAVENLRNFHYHLKNDNLQFMALHVATAAKNLHRELARNHAESTKIDTRILHDITRTIATLKPLVGSLERTPFRKQEMYREYCGNVLKCGLELATIAHRDRFALQPVPAIRQSAERLENLANFVIQDISDPMVLQPASLNLVTLKKRESELGFNIESSYNGIHRVTDIKYNSPAHNSGKIEDGDEIVQINYQTVVGWQHRTVLEHLREALPDVVLTVKKRPKHTKMFGQIYMQPYRLPSKKRNMAARWAAQMPSPRAAFLTLDTEQLATGGTGSAVPDPSKSLSSEKREVLTKANPVSSASDSDSSCSDIPTPTDPKLAAREIRLYYPKPRALLQRRNTICGCEYLSLKNSDLVVPSWHERKPGIGSPTNCDPGSPSIRDKSISFGYGLEMAARPTTCIGIAGDTSTDKARRMFHEARKLKQLTEDSQREFLVDRYKPGVSKVVRFDAKEDYVMKNEKFICNVENTILETFEPIPFADEGDEDA
B2: GST-HYP [Drosophila] / Myc-MEK [Drosophila] (parent)
chain 1: B1 chain 1
chain 2: MGEETINSTQNKTRTKTTRPKAVYLWTVSDVLKWYRRHCGEYTQYEQLFAQHDITGRALLRITDSSLQRMGVTDNRDREAIWREIVKQRLKTDIMEIRDMERLNIY
B3: Flag-CNK^2–549 [Drosophila] / V5-KSR [Drosophila] (parent)
chain 1: MSSNNNAPASAPDTGSTNANDPISGSLSVDSNLVIIQDMIDLSANHLEGLRTQCAISSTLTQQEIRCLESKLVRYFSELLLAKMRLNERIPANGLVPHTTGNELRQWLRVVGLSQGTLTACLARLTTLEQSLRLSDEEIRQLLADSPSQREEEELRRLTRAMQNLRKCMESLESGTAASNNDPEQWHWDSWDRPTHIHRGSVGNIGLGNNSTASPRTHHRQHGVKGKNSALANSTNFKSGRQSPSATEELNSTQGSQLTLTLTPSPPNSPFTPSSGLSSSLNGTPQRSRGTPPPARKHQTLLSQSHVQVDGEQLARNRLPTDPSPDSHSSTSSDIFVDPNTNASSGGSSSNVLMVPCSPGVGHVGMGHAIKHRFTKALGFMATCTLCQKQVFHRWMKCTDCKYICHKSCAPHVPPSCGLPREYVDEFRHIKEQGGYASLPHVHGAAKGSPLVKKSTLGKPLHQQHGDSSSPSSSCTSSTPSSPALFQQRERELDQAGSSSSANLLPTPSLGKHQPSQFNFPNVTVTSSGGSGGVSLISNEPVPEQFPTAPATANGGLDSLVSSSNGHMSSLIGSQTSNASTAATLTGSLVNSTTTTSTCSFFPRKLSTAGVDKRTPFTSEYTDTHKSNDSDKTVSLSGSASTDSDRTPVRVDSTEDGDSGQWRQNSISLKEWDIPYGDLLLLERIGQGRFGTVHRALWHGDVAVKLLNEDYLQDEHMLETFRSEVANFKNTRHENLVLFMGACMNPPYLAIVTSLCKGNTLYTYIHQRREKFAMNRTLLIAQQIAQGMGYLHAREIIHKDLRTKNIFIENGKVIITDFGLFSSTKLLYCDMGLGVPHNWLCYLAPELIRALQPEKPRGECLEFTPYSDVYSFGTVWYELICGEFTFKDQPAESIIWQVGRGMKQSLANLQSGRDVKDLLMLCWTYEKEHRPQFARLLSLLEHLPKKRLARSPSHPVNLSRSAESVF
chain 2: B1 chain 2
B4: GST-HYP [Drosophila] / V5-KSR [Drosophila] (parent)
chain 1: B3 chain 1
chain 2: B2 chain 2

Variants of: B1
Test: GST pull-down, immunoblot quantification
Details: with Myc-MEK [Drosophila]; S2 cells; GST-HYP + RRKM co-expressed; captured via GST-HYP; anti-Myc (MEK) blot; parent: 1

Variant | ratio to parent
chain 2 F73R V251R | 0.5
chain 2 F73R | 0.82
chain 2 E249R V251R | 0.06
chain 2 A66F F73R | 0.48
chain 2 D80R | 0.9
chain 2 F73R E249R | 0.13
chain 2 A66F | 1.08
chain 2 D80R K282D | 0.34
chain 2 E249R | 0.76

Other lines, results leading:

ratio to parent | Variant
0.1 | chain 2 K282D
0.78 | chain 2 V251R

Same assay, conditions: with Myc-MEK [Drosophila]; S2 cells; GST-HYP + RRKM (Ha-RASV12, Pyo-RAF, V5-KSR, Myc-MEK) co-expressed; captured via GST-HYP; anti-MEK blot; parent: 1

ratio to parent | Variant
1.01 | chain 2 S193A
0.68 | chain 2 Q199A
0.04 | chain 2 V197E

Same assay, conditions: with Myc-MEK [Drosophila]; S2 cells; GST-HYP, V5-KSR, Myc-MEK co-expressed; captured via GST-HYP; anti-MEK blot; parent: 1

ratio to parent | Variant
1.09 | chain 2 S193A
0.62 | chain 2 Q199A
0.03 | chain 2 V197E
0.02 | chain 2 D194K V197E

Same assay, conditions: with Myc-MEK [Drosophila]; S2 cells; GST-HYP, Flag-CNK2–549 + RRKM co-expressed; captured via GST-HYP; anti-Myc (MEK) blot; parent: 1

ratio to parent | Variant
0.01 | chain 2 I122D L151D
0.05 | chain 2 L151D
0.77 | chain 2 I122D

Variants of: B2
Test: GST pull-down, immunoblot quantification
Details: with Myc-MEK [Drosophila]; S2 cells; GST-HYP, Flag-CNK2–549 + RRKM co-expressed; anti-Myc (MEK) blot; parent: 1

ratio to parent | Variant
0.09 | chain 2 L90D
0.04 | chain 2 L90D I97D
0.68 | chain 2 I97D

Variants of: B3
Test: GST pull-down, immunoblot quantification
Details: with V5-KSR [Drosophila]; S2 cells; GST-HYP + RRKM co-expressed; captured via GST-HYP; anti-V5 (KSR) blot; parent: 1

Variant | ratio to parent
chain 2 E249R V251R | 0.08
chain 2 F73R | 0.87
chain 2 E249R | 0.82
chain 2 A66F F73R | 0.66
chain 2 D80R K282D | 0.16
chain 2 F73R E249R | 0.16
chain 2 A66F | 0.97
chain 2 D80R | 0.61
chain 2 F73R V251R | 0.72

The next lines start with the values.

ratio to parent | Variant
0.03 | chain 2 K282D
0.79 | chain 2 V251R

Same assay, conditions: with V5-KSR [Drosophila], S2 cells, GST-HYP, Myc-MEK co-expressed, captured via GST-HYP, anti-V5 (KSR) blot, parent: 1

Variant | ratio to parent
chain 2 D194K | 0.08
chain 2 D194K V197E | 0.05

Continued, values first:

ratio to parent | Variant
0.82 | chain 2 Q199A
0.49 | chain 2 M196E
0.07 | chain 2 V197E
0.98 | chain 2 S193A

Same assay, conditions: with V5-KSR [Drosophila]; S2 cells; GST-HYP + RRKM (Ha-RASV12, Pyo-RAF, V5-KSR, Myc-MEK) co-expressed; captured via GST-HYP; anti-V5 (KSR) blot; parent: 1

ratio to parent | Variant
0.73 | chain 2 Q199A
0.26 | chain 2 M196E
0.03 | chain 2 V197E
0.04 | chain 2 D194K
1 | chain 2 S193A

Variants of: B3
Test: GST pull-down, immunoblot quantification
Details: with V5-KSR [Drosophila], S2 cells, GST-HYP, Myc-MEK co-expressed, captured via GST-HYP, anti-V5 (KSR) blot, parent: 1

Variant | ratio to parent
chain 2 A40F | 0.93
chain 2 H263A | 0.9

Results, then the variant that gave them:

ratio to parent | Variant
0.62 | chain 2 M196E
0.95 | chain 2 K33D
0.92 | chain 2 K109E
0.89 | chain 2 R264E
0.89 | chain 2 L267R
0.95 | chain 2 T135F

Variants of: B3
Test: GST pull-down, immunoblot quantification
Details: with Flag-CNK^2–549 [Drosophila]; S2 cells; Flag-CNK2–549, GST-HYP + RRM (Ha-RASV12, Pyo-RAF, Myc-MEK) co-expressed; captured via GST-HYP; anti-Myc (MEK) blot; parent: 1

ratio to parent | Variant
0.04 | chain 1 K903D
1.23 | chain 1 E926R
0.05 | chain 1 M902D
0.07 | chain 1 Y925D

Same assay, conditions: with Flag-CNK^2–549 [Drosophila]; S2 cells; Flag-CNK2–549, GST-HYP + RRM (Ha-RASV12, Pyo-RAF, Myc-MEK) co-expressed; captured via GST-HYP; anti-V5 (KSR) blot; parent: 1

ratio to parent | Variant
0.07 | chain 1 K903D
1.07 | chain 1 E926R
0.07 | chain 1 M902D
0.12 | chain 1 Y925D

Same assay, conditions: with V5-KSR [Drosophila]; S2 cells; Flag-CNK2–549, V5-KSR, Myc-MEK, GST-HYP co-expressed; captured via GST-HYP; anti-V5 (KSR) blot; parent: 1

ratio to parent | Variant
0.99 | chain 2 R45F
0.81 | chain 2 R98E
0.07 | chain 2 N81W
0.15 | chain 2 N81E
0.16 | chain 2 Q83E
0.92 | chain 2 N95E
0.74 | chain 2 Y75R

Same assay, conditions: with Flag-CNK^2–549 [Drosophila]; S2 cells; Flag-CNK2–549, V5-KSR, Myc-MEK, GST-HYP co-expressed; captured via GST-HYP; anti-Myc (MEK) blot; parent: 1

ratio to parent | Variant
0.83 | chain 1 R913E

Same assay, conditions: with Flag-CNK^2–549 [Drosophila]; S2 cells; Flag-CNK2–549, V5-KSR, Myc-MEK, GST-HYP co-expressed; captured via GST-HYP; anti-V5 (KSR) blot; parent: 1

ratio to parent | Variant
0.75 | chain 1 R913E

Same assay, conditions: with V5-KSR [Drosophila]; S2 cells; GST-HYP, Flag-CNK2–549 + RRKM co-expressed; captured via GST-HYP; anti-V5 (KSR) blot; parent: 1

ratio to parent | Variant
0.01 | chain 2 I122D L151D
0.14 | chain 2 L151D
0.76 | chain 2 I122D

Variants of: B4
Test: GST pull-down, immunoblot quantification
Details: with V5-KSR [Drosophila]; S2 cells; GST-HYP, Flag-CNK2–549 + RRKM co-expressed; anti-V5 (KSR) blot; parent: 1

ratio to parent | Variant
0.05 | chain 2 L90D I97D
0.62 | chain 2 I97D
0.13 | chain 2 L90D
